Measurements taken from patent US20150344570A1 (published 2015).

T1: FcγRIIa H (human, UniProt P12318 34-217)
T1 construct: extracellular domain; also called FcγRIIa type H; 2aH; not shown: His tag at the C terminus
T1 sequence (looked up): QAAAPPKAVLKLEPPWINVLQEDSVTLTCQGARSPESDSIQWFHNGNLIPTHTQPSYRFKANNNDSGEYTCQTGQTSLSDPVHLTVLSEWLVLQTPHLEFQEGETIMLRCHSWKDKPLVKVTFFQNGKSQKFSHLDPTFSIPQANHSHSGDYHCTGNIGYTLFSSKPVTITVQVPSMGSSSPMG

T2: FcγRIIb (human, UniProt P31994 43-217)
T2 construct: extracellular domain; also called 2b; not shown: His tag at the C terminus
T2 sequence (looked up): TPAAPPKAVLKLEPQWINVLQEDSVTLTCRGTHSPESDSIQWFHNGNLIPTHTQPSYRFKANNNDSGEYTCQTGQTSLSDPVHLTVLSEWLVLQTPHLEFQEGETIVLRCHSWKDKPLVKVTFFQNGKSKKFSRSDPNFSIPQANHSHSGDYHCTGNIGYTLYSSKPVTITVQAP


Columns and labels:
[1] = target: T3, FcγRIa extracellular domain with C-terminal His tag (human, UniProt P12314 16-292); test: SPR; He/Con_1a divided by He/Con_2b (FcγRIa against FcγRIIb)
T3 construct: extracellular domain; also called FcgRI; CD64; not shown: His tag at the C terminus

[2] = target: T3, FcγRIa extracellular domain with …; test: SPR (Biacore), antibody captured, FcγR analyte; relative to GpH7-A5/GpH7-B3/GpL16-k0 = 100
FcγRIIa H [3] = target: T1, FcγRIIa H; test: SPR (Biacore); He/Con_2aH divided by He/Con_2b (FcγRIIa H over FcγRIIb)
FcγRIIb = target: T2, FcγRIIb; test: SPR (Biacore), antibody captured, FcγR as analyte; binding relative to GpH7-A5/GpH7-B3/GpL16-k0 = 100
FcγRIIa H [4] = target: T1, FcγRIIa H; test: as above

T3 sequence (P12314 16-292): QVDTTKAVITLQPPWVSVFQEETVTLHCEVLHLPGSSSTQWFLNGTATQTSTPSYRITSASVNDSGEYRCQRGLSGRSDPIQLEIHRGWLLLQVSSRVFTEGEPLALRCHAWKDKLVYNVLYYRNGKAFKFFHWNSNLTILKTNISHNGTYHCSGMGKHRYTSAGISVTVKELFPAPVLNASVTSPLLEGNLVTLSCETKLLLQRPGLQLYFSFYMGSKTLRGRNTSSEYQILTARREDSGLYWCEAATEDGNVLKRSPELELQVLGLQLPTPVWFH

Row | Binder | He_1a/2b (Ia/IIb) [1] [ratio] | He/Con_1a [2] | He_2aH/2b (IIaH/IIb) (FcγRIIa H [3]) [ratio] | He/Con_2b (FcγRIIb) | He/Con_2aH (FcγRIIa H [4])
1 | GpH7-A5/GpH7-B3 variant L235_03V/GpL16-k0 (antibody, human IgG1, kappa, Heterodimerized IgG1; mutation in the GpH7-B3 chain only; also called He Ab) heavy 1: not shown heavy 2: not shown light: DIVMTQSPLSLPVTPGEPASISCQASESLVHSNRNTYLHWYLQKPGQSPQLLIYKVSNRFSGVPDRFSGSGSGTDFTLKISRVEAEDVGVYYCSQNTHVPPTFGQGTKVEIERTVAAPSVFIFPPSDEQLKSGTASVVCLLNNFYPREAKVQWKVDNALQSGNSQESVTEQDSKDSTYSLSSTLTLSKADYEKHKVYACEVTHQGLSSPVTKSFNRGEC |  |  | 1.28 | 66.4 % of control | 85.3 % of control
2 | GpH7-A5/GpH7-B3 variant L235_13S/GpL16-k0 (antibody, human IgG1, kappa, Heterodimerized IgG1; mutation in the GpH7-B3 chain only; also called He Ab) heavy 1: not shown heavy 2: not shown light: DIVMTQSPLSLPVTPGEPASISCQASESLVHSNRNTYLHWYLQKPGQSPQLLIYKVSNRFSGVPDRFSGSGSGTDFTLKISRVEAEDVGVYYCSQNTHVPPTFGQGTKVEIERTVAAPSVFIFPPSDEQLKSGTASVVCLLNNFYPREAKVQWKVDNALQSGNSQESVTEQDSKDSTYSLSSTLTLSKADYEKHKVYACEVTHQGLSSPVTKSFNRGEC |  |  | 1.37 | 48.2 % of control | 66.1 % of control
3 | GpH7-A5/GpH7-B3 variant L235_19Q/GpL16-k0 (antibody, human IgG1, kappa, Heterodimerized IgG1; mutation in the GpH7-B3 chain only; also called He Ab) heavy 1: not shown heavy 2: not shown light: DIVMTQSPLSLPVTPGEPASISCQASESLVHSNRNTYLHWYLQKPGQSPQLLIYKVSNRFSGVPDRFSGSGSGTDFTLKISRVEAEDVGVYYCSQNTHVPPTFGQGTKVEIERTVAAPSVFIFPPSDEQLKSGTASVVCLLNNFYPREAKVQWKVDNALQSGNSQESVTEQDSKDSTYSLSSTLTLSKADYEKHKVYACEVTHQGLSSPVTKSFNRGEC |  |  | 1.45 | 42.6 % of control | 62 % of control
4 | GpH7-A5/GpH7-B3 variant L235_14T/GpL16-k0 (antibody, human IgG1, kappa, Heterodimerized IgG1; mutation in the GpH7-B3 chain only; also called He Ab) heavy 1: not shown heavy 2: not shown light: DIVMTQSPLSLPVTPGEPASISCQASESLVHSNRNTYLHWYLQKPGQSPQLLIYKVSNRFSGVPDRFSGSGSGTDFTLKISRVEAEDVGVYYCSQNTHVPPTFGQGTKVEIERTVAAPSVFIFPPSDEQLKSGTASVVCLLNNFYPREAKVQWKVDNALQSGNSQESVTEQDSKDSTYSLSSTLTLSKADYEKHKVYACEVTHQGLSSPVTKSFNRGEC |  |  | 1.53 | 46.8 % of control | 71.5 % of control
5 | GpH7-A5/GpH7-B3 variant L235_18N/GpL16-k0 (antibody, human IgG1, kappa, Heterodimerized IgG1; mutation in the GpH7-B3 chain only; also called He Ab) heavy 1: not shown heavy 2: not shown light: DIVMTQSPLSLPVTPGEPASISCQASESLVHSNRNTYLHWYLQKPGQSPQLLIYKVSNRFSGVPDRFSGSGSGTDFTLKISRVEAEDVGVYYCSQNTHVPPTFGQGTKVEIERTVAAPSVFIFPPSDEQLKSGTASVVCLLNNFYPREAKVQWKVDNALQSGNSQESVTEQDSKDSTYSLSSTLTLSKADYEKHKVYACEVTHQGLSSPVTKSFNRGEC |  |  | 1.2 | 54.9 % of control | 66.1 % of control

The next lines start with the values.

Row | He_1a/2b (Ia/IIb) [1] [ratio] | He/Con_1a [2] | He_2aH/2b (IIaH/IIb) (FcγRIIa H [3]) [ratio] | He/Con_2b (FcγRIIb) | He/Con_2aH (FcγRIIa H [4]) | Binder
6 | 7.05 | 63.3 % of HeCon Ab |  |  |  | GpH7-A5/GpH7-B3 variant G237_11K/GpL16-k0 (antibody, human IgG1, kappa, Heterodimerized anti-glypican-3 IgG1; mutation only in the GpH7-B3 H chain; also called He Ab) heavy 1: not shown heavy 2: not shown light: DIVMTQSPLSLPVTPGEPASISCQASESLVHSNRNTYLHWYLQKPGQSPQLLIYKVSNRFSGVPDRFSGSGSGTDFTLKISRVEAEDVGVYYCSQNTHVPPTFGQGTKVEIERTVAAPSVFIFPPSDEQLKSGTASVVCLLNNFYPREAKVQWKVDNALQSGNSQESVTEQDSKDSTYSLSSTLTLSKADYEKHKVYACEVTHQGLSSPVTKSFNRGEC
7 | 6.71 | 65.8 % of HeCon Ab |  |  |  | GpH7-A5/GpH7-B3 variant G237_12R/GpL16-k0 (antibody, human IgG1, kappa, Heterodimerized anti-glypican-3 IgG1; mutation only in the GpH7-B3 H chain; also called He Ab) heavy 1: not shown heavy 2: not shown light: DIVMTQSPLSLPVTPGEPASISCQASESLVHSNRNTYLHWYLQKPGQSPQLLIYKVSNRFSGVPDRFSGSGSGTDFTLKISRVEAEDVGVYYCSQNTHVPPTFGQGTKVEIERTVAAPSVFIFPPSDEQLKSGTASVVCLLNNFYPREAKVQWKVDNALQSGNSQESVTEQDSKDSTYSLSSTLTLSKADYEKHKVYACEVTHQGLSSPVTKSFNRGEC
8 |  |  | 1.31 | 60.3 % of control | 79.2 % of control | GpH7-A5/GpH7-B3 variant L234_19Q/GpL16-k0 (antibody, human IgG1, kappa, Heterodimerized IgG1; mutation in the GpH7-B3 chain only; also called He Ab) heavy 1: not shown heavy 2: not shown light: DIVMTQSPLSLPVTPGEPASISCQASESLVHSNRNTYLHWYLQKPGQSPQLLIYKVSNRFSGVPDRFSGSGSGTDFTLKISRVEAEDVGVYYCSQNTHVPPTFGQGTKVEIERTVAAPSVFIFPPSDEQLKSGTASVVCLLNNFYPREAKVQWKVDNALQSGNSQESVTEQDSKDSTYSLSSTLTLSKADYEKHKVYACEVTHQGLSSPVTKSFNRGEC
9 |  |  | 1.47 | 59.4 % of control | 87.3 % of control | GpH7-A5/GpH7-B3 variant L234_16H/GpL16-k0 (antibody, human IgG1, kappa, Heterodimerized IgG1; mutation in the GpH7-B3 chain only; also called He Ab) heavy 1: not shown heavy 2: not shown light: DIVMTQSPLSLPVTPGEPASISCQASESLVHSNRNTYLHWYLQKPGQSPQLLIYKVSNRFSGVPDRFSGSGSGTDFTLKISRVEAEDVGVYYCSQNTHVPPTFGQGTKVEIERTVAAPSVFIFPPSDEQLKSGTASVVCLLNNFYPREAKVQWKVDNALQSGNSQESVTEQDSKDSTYSLSSTLTLSKADYEKHKVYACEVTHQGLSSPVTKSFNRGEC
10 |  |  | 3.61 | 6.3 % of control | 22.7 % of control | GpH7-A5/GpH7-B3 variant L235_11K/GpL16-k0 (antibody, human IgG1, kappa, Heterodimerized IgG1; mutation in the GpH7-B3 chain only; also called He Ab) heavy 1: not shown heavy 2: not shown light: DIVMTQSPLSLPVTPGEPASISCQASESLVHSNRNTYLHWYLQKPGQSPQLLIYKVSNRFSGVPDRFSGSGSGTDFTLKISRVEAEDVGVYYCSQNTHVPPTFGQGTKVEIERTVAAPSVFIFPPSDEQLKSGTASVVCLLNNFYPREAKVQWKVDNALQSGNSQESVTEQDSKDSTYSLSSTLTLSKADYEKHKVYACEVTHQGLSSPVTKSFNRGEC
11 |  |  | 1.53 | 35.4 % of control | 54.1 % of control | GpH7-A5/GpH7-B3 variant L235_01G/GpL16-k0 (antibody, human IgG1, kappa, Heterodimerized IgG1; mutation in the GpH7-B3 chain only; also called He Ab) heavy 1: not shown heavy 2: not shown light: DIVMTQSPLSLPVTPGEPASISCQASESLVHSNRNTYLHWYLQKPGQSPQLLIYKVSNRFSGVPDRFSGSGSGTDFTLKISRVEAEDVGVYYCSQNTHVPPTFGQGTKVEIERTVAAPSVFIFPPSDEQLKSGTASVVCLLNNFYPREAKVQWKVDNALQSGNSQESVTEQDSKDSTYSLSSTLTLSKADYEKHKVYACEVTHQGLSSPVTKSFNRGEC
